Measurements as given in patent publication US20230035859A1, “COMPOSITIONS AND METHODS FOR EPITOPE SCANNING” (priority 2019, published 2023).

Experiments:
[1] = biological target: QuickSwitch Quant HLA-A*02:01 Tetramers (PE or APC labeled) (MBL International), A*02:0; experiment: QuickSwitch Quant tetramer control peptide exchange

| Binder | EpiScan MFI (HLA-A*02:01 (human)) | % Peptide Exchange [1] [%] |
| --- | --- | --- |
| SLPGVFCGV (modifications not checked) | 6.42 | 98 |
| AMDEFIERYKL (modifications not checked) | 2.35 | 96.9 |
| VLYQDVNCTEV (modifications not checked) | 5.6 | 97.9 |
| VMAYITGGV (modifications not checked) | 4.53 | 99.1 |
| TLATHGLAAV (modifications not checked) | 4.04 | 98 |
| VMVELVAEL (modifications not checked) | 5.34 | 98.6 |
| VMAYITGGVV (modifications not checked) | 4.64 | 99.1 |
| YIDIGNYTV (modifications not checked) | 4.42 | 97.9 |
